Laboratory results as given in patent US11505586B2, “Interaction of Draxin and γ-netrins” (Max-Planck-Gesellschaft zur Foerderung der Wissenschaften …, priority 2014, dated 2022).

What was measured:
[1] = molecular target: T1, recombinant human DCC (Homo sapiens, UniProt P43146); experiment: Surface Plasmon Resonance; format: binding; conditions: Biacore 3000, Draxin 0-18.8 nM
T1 construct: made in house; host or cells: HEK293-6E
Method: (§1) Surface Plasmon Resonance (SPR) experiments were performed on a Biacore 3000 (GE Healthcare) at 25° C. using a SA sensor chip in 0.01 M HEPES, pH 7.4, 0.15 M NaCl, 0.005% Surfactant P20 (HBS-P) running buffer at a flow rate of 30 μl/min. The instrument was used according to manufacturer's instructions.
(§2) Recombinant human Draxin was purchased from R&D systems. Biotinylated recombinant human UNC5B, Netrin1 and DCC were produced recombinantly using the described mammalian expression system (HEK293-6E). Biotinylated proteins were immobilised on the SA coated sensor chip and Draxin was injected sequentially in increasing concentrations (0 nM, 1.2 nM. 2.3 nM, 4.7 nM, 9.4 nM, 18.8 nM) for 3 min. […] No binding of Draxin to UNC5B and DCC was detected (FIG. 14).

[2] = molecular target: T2, recombinant human UNC5B (Homo sapiens, UniProt Q8IZJ1); experiment: Surface Plasmon Resonance; format: binding; conditions: Biacore 3000, Draxin 0-18.8 nM
T2 construct: made in house; host or cells: HEK293-6E
Method: as §1, §2

[3] = tested on: Netrin receptors; experiment: AVEXIS direct binding to Netrin receptors; set-up: species or system zebrafish; conditions: AVEXIS platform
Excerpt: By using an AVEXIS-based competition assay (FIG. 6 A) we tested whether the binding of DraxinA to Netrin1a has an influence on Netrins ability to bind to Netrin receptors. First we confirmed that we reliably detected the binding of Netrin1a to Netrin receptors of the DCC/Neo1 and Unc5 families with the AVEXIS method. We also tested whether Draxin is able to bind to the corresponding Netrin receptors. […] This has also been confirmed by a recent publication (Haddick et al. 2014). In the competition assay the extracellular domains (ECDs) of Netrin receptors have been used as prey proteins together with purified full length DraxinA and probed for binding against Netrin1a bait proteins. […] The inhibition is specific for DraxinA.

T1 sequence (P43146 26-1097 limits assumed): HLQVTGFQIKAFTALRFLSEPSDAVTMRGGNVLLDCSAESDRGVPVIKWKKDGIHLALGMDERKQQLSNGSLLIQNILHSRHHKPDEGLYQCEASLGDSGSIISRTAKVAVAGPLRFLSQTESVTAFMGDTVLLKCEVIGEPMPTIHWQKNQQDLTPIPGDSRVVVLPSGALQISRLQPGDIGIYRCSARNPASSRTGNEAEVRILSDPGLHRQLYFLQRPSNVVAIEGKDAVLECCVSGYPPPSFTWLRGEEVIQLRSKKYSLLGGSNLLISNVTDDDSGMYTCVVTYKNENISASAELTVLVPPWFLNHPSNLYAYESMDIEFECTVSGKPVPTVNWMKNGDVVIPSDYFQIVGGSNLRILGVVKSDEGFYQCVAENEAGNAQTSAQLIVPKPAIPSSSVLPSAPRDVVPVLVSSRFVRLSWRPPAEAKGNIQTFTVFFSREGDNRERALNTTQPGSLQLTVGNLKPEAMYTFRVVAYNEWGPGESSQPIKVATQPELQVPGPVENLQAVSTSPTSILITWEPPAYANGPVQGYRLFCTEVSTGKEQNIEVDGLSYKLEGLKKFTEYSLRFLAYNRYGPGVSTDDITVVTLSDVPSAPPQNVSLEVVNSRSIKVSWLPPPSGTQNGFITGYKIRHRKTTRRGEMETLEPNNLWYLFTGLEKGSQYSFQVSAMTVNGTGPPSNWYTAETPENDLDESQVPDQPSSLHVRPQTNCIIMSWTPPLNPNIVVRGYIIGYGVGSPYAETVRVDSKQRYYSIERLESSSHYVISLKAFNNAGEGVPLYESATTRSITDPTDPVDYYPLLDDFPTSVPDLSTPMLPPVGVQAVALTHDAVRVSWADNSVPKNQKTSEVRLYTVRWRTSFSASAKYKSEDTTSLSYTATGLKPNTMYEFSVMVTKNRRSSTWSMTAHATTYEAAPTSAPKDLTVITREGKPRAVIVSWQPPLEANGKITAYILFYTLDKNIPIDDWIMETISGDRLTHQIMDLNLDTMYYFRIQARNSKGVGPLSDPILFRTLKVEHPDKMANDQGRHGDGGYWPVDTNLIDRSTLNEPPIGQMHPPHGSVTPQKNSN

binding to immobilised DCC [1]: No binding
binding to immobilised UNC5B [2]: No binding
direct binding to Netrin receptors [3]: not able to detect direct binding
B1: Draxin: Recombinant human Draxin purchased from R&D systems (protein, listed as Homo sapiens)
chain: MAGPAIHTAPMLFLVLLLPLELSLAGALAPGTPARNLPENHIDLPGPALWTPQASHHRRRGPGKKEWGPGLPSQAQDGAVVTATRQASRLPEAEGLLPEQSPAGLLQDKDLLLGLALPYPEKENRPPGWERTRKRSREHKRRRDRLRLHQGRALVRGPSSLMKKAELSEAQVLDAAMEESSTSLAPTMFFLTTFEAAPATEESLILPVTSLRPQQAQPRSDGEVMPTLDMALFDWTDYEDLKPDGWPSAKKKEKHRGKLSSDGNETSPAEGEPCDHHQDCLPGTCCDLREHLCTPHNRGLNNKCFDDCMCVEGLRCYAKFHRNRRVTRRKGRCVEPETANGDQGSFINV
